Test results: the nanobody polyreactivity screen of Harvey et al. (2022)

Test: yeast display, Sf9 membrane polyspecificity reagent, FACS + sequencing; frameworks hold sequencing errors
Procedure, shortened: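 Synthetic nanobody libraries on Saccharomyces cerevisiae BJ5465 were galactose-induced for 36–48 hours, stained 1 hour at 4 °C with 10% biotinylated, detergent-solubilized Sf9 membrane reagent and enriched on streptavidin microbeads. FACS then separated cells into low and high (top ~1%) gates by anti-HA (expression) and streptavidin (reagent binding) fluorescence. Genes were colony-PCR amplified, MiSeq 2 × 250 sequenced and CDR-length filtered. A clone's polyreactivity label is that of its gate of origin.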

Row | Sequence | polyreactivity (PSR sort gate)
1 | QDQHVESGGGLVQAGGSLRLSCAASGRTFYSYTMGWYRPPPGKERELVAAINRSGGRTYYADSVKGRFTISRDNAKNTVYLQRNSLKPEDTAVYYCNALEYYRFDYWGQCTQVTVSS | high polyreactivity
2 | QDQHVESGGGLVQAGGSLRLSCAASGSIFNYYAMGWYRQAPGKEREFVAAISRSGGSTYYADSEKGRFTISRDNAKNTVYLEMNSLKPEDTAVYYCNAYSYSEAGDDGDYWGQGTQVTVSS | low polyreactivity
3 | QDQHVESGGGLVQAGGSLRLSCAASGSTFRKYAMGRSRQAPGKERELVAAISWSGGRTYYADSVKGRFTISRDNAKKTFYLQLNSLKPEDTAVYYCAASIPGTRSDGYWGQGTQVTVSS | high polyreactivity
4 | QDQHVESGGGLVQAGGSLRLSCAASGSTFTGYDMGRYRQAPGKERELVAAISWNGGSTYYADSVKGRFTISRDNAKNTVYLQMNSLKPEDTAVYYCAKVTLTHSRFRYYYWGQGTQVTVSS | high polyreactivity
5 | QDQHVESGGGLVQAGGSLRLSCAASRRTIDLYAMGWYRQAPGKERELVAAITKGGGSTYYADSVKGRFTISRDNATNTVYLQMNSLKPEDTAVFYCAARKYKRIYRISSGIGYYWGQGTQVTVSS | high polyreactivity
6 | QDQHVESGGGLVQAGGSLRLSCDASGFIFSYYTMGCYRQAPGKERELVAAIRSSGGSTYADSVKGRFTISRDNAKNTVYLQMTSLKPEDTAVYYCAAVQTWRWVYARDYWGQGTQVTVSS | high polyreactivity
7 | QDQHVESGGGLVQARGSLRLSCAASGRIFANKAMGRYRQAPGKERELVAAISRSGVSTYYADSVKGRFTISRDNAKNTVYLQMNSLKPEDSAVYYCAARWRSGFTSGDDWGQGTQVTVSA | low polyreactivity
8 | QDQHVESGGGLVQARGTLRLSCAASGFTFYHYAMGWSRQAPGTERELVAGISHRGASTYYADSVKGRFTISRDNAKNTVYLQMNSLKPEDTAVYYCNAYRPYRNHALIGDGYWGQGTQVTVSS | high polyreactivity
9 | QDQHVESVGGLVQAGGGLPLSCAASGRTFTYNAMGWYRQPPGKERELVAAITSGGTTNYADSVKGRFTISRDNAKNTVYLQMNSLKQEDTAVYYCAARRVYYSYRRYYYWGQGTQVTVSS | low polyreactivity
10 | QDQHVETGGGLVQAGGSLRLSCAASGSIFFLYMGWYRKAHGKETELVATISSGGSTNYADSVMGRFTISRDNAKHTVYLQMNSLKPVATAVYYFNARGSERLDTYSLYDYWGQGTQVTVSS | low polyreactivity
11 | QDQLEDSGGGLVQAGGSLRLSCAASGRTFTLYAMGWSRQAPGKERELVASISRSGGSTYYADSVKGRFTISRDNAKNTVYLQMNSVKPEDTAVDYCAARRFAWLFIYDYWGQGTQVTVSS | high polyreactivity
12 | QDQLEESGGCLVQAGGSLRLSCAASGRIFYGYVMRWYRQAPGKERELVAAINQSGTSTYYADSVKGRFTISRDYAKNTVYLQMNSLKPEDTAVYYCAKDWAYRRHWVGFYYWGQGTQVTVSS | low polyreactivity
13 | QDQLEESGGGLVQAGGSLRLSCAASGRNFYGYVMGWYRQAPGKERELVAAISSGGSTYYADSVKGRFTISRDNAKNTVYLQMNSLKPEDTAVYYCNADWKSYRGPKFDYWGQGTQVTVSS | low polyreactivity
14 | QDQLEESGGGLVQAGGSLRLSCAATGITFSSNAMGWYRQAPGKERELVAAISWSGGSTYYADSVKGRFTISRDYAKNTVYLQMNSLKPEDTAVYYCNASKHNPYGGDYWGQGTQVTVSS | high polyreactivity
15 | QDQLGDSGGGLVQAGGSLRLSCAASGFTFGKYAMGWYRQAPGKERELVAAISWSGASTYYADSVKGRFTISRDNAMNTVYLQMNSLKAEDTALYYCAKRDYSYPWFRDYYYWGQGTLVTVSS | low polyreactivity
16 | QDQLGDSGGGLVQAGGSLRLSCAASGSTYSVYTMGWYRQAPGKERELVAGITSNAGSTYYADSVKGRFTISRDNAMNTVYLEMNRLKPEDTAVYYCNADRWVRTTYDYWGQGTQVTVSS | high polyreactivity
17 | QDQLVDSGAGLLQAGGSLRLSCAASGFTFYGYAMGWYRQAPGKERELVASISWSGGTTYYADSVKGRFTISRDNAKNTVYLQMNSLKPEDTAVYYCNAVRYRYGVFPYYYWGQGTQVTESS | high polyreactivity
18 | QDQLVDSGGGLVQAGGSLRLICAASGRIFHCYAMGWYRQAPGKERELVAAIRASGGRTYYADSVKGRFTISRDNAKNTVYVQMNSLKPEDPAVYYCGADSVKYGGDYWGQGTQVTVSS | high polyreactivity
19 | QDQLVDSGGGLVQAGGSLRLSCAASGFIFWYYAMGWYRQEPGKERELVAAITSGGNTNYADSVKGRFTISRDNAKNTFYLQMNSLKPEDTAVYYCATGRASGREHDSWGHGTQVTVSS | low polyreactivity
20 | QDQLVDSGGGLVQAGGSLRLSCAASGRTFESYAMGWYRQAPGKERELVAAISYSGGSTYYADSVKGRFTISRDNAKNTVYLQMNSLKPEDTAVYYCAVRWRYKYDYWGQGTQVTVSS | high polyreactivity
21 | QDQLVDSGGGLVQAGGSLRLSCAASGSTGTYMGWYRQAPGKERELVAAIDNICDNTYNADSVKGRFTISRDNAKNTVYLQMNSLIPEDSAVYYCAADYYVYYPWLFEYDYWGQGTQVTVSS | low polyreactivity
22 | QDQLVDSGGGLVQAGGSLRLSCDASGIFDYYVMGWYRQAPGTERELVAAISKSVGSTYYADSVKGRFTISRDNAKNTVYLQMNSLKPEDTAVYYCAVENRYRFGYWGQGTQVTVSS | low polyreactivity

Row | Sequence | polyreactivity (PSR sort gate)
23 | QDQLVDSGGGLVQAGGSLRLSSSASGLIFYKYAMGWYRQAPGKERELVAAISSSGGSTYYADSVKGRFTISRDTAKITVYLQMNSLKPDDTAVYYCAARTNRRGYNYWGQGTQVTVSS | high polyreactivity
24 | QDQLVEAGGGLVQAGGSLRLSCAASGRIFYPDAMVWYRQAPGKERELVAAIRRSGVDTYYADSVKVRFTISRDNAKNTVSLQRNSLKPEDTAVYYCAADPYWFFPHYDSWGQGTQVTVSS | low polyreactivity
25 | QDQLVESAAGLVQAGGSLRLSCAASGRTLYTNALGWYIQAPGKERELVAAISSDSSTKYADSVKGRFTISRDNAKNTVYLQMNSLKPEDTAVYYCARRGAFYYLYGHQYALYDYWGQGTQVTVSS | low polyreactivity
26 | QDQLVESAGGLVQAGGSLRLSCAASGRTFYFYTMGWYRQAPGKESELVATAITSGGSTNYADSVKGRFTISRDNAKNTVYLQMNSLKPEDTAVYYCAAVPTEFGNRLEYDYWGQGTQVTVSS | low polyreactivity
27 | QDQLVESAGGLVQAGGSRRLSCAASGFTFYRNAMGCYRQAPGKERELVAAISITGGRTYYADSVKGRFTISRDNAKNTVYLQMNSLIPEDTAVYYCAKDRQRYGGDFDYWGQGTQLTVSS | high polyreactivity
28 | QDQLVESCGGLVPAGGSLRLSCPASGPIFTYYTMGSYRQAPGKERELVAAITVRGGRTYYADSVKGRFTISRDNEKNTVYLQMNSLKPEDTAVYYCAARGLVRSYDYWGQGTQVSVSS | high polyreactivity
29 | QDQLVESDAGLVQAGGSLRLSCAASGRIFLGNAMGRSIQPPGNERELVAAITYSGRSTYYSDSVKGRLTISRDNAKNTLYLQMNSLKPEDTAVYYCAARQYWTTDLPFQRYYYWGPGTQVTVSS | low polyreactivity
30 | QDQLVESGACLVQAGGRLRLSCAASGFTFYYNAMGWYRQAPGKEREFVAAISRSGGSTTYADSVKGRFTISRDNAMNTGFLEMNSLKPEDTAVYYCNARRYRCKSYDYWGQGTQVTVSS | high polyreactivity
31 | QDQLVESGGALVQAGRSLRLSCAASGIIYIYYAMGWYIQAPGKERELVAAISGSGDSTYYADSVKGRFTISRDNAKNTVYLQMNSLKPEDTAVYYCARRSPNPYSIYYYWGQGTQVTVSS | high polyreactivity
32 | QDQLVESGGCLVQAGGSLRLRCAASGITFDRYTMGWYRQAPGKERELVAAIRSGGGTYYADSVKGRFTISRDNAKNTVYLQMNSLKPEDTAVYYCAATRVSPSQYLRYYYWGQGTQVTVSS | high polyreactivity
33 | QDQLVESGGCLVQAGGSLRLSCAASGSTFGYNVMGRYRQAPGKERELVAAISSSGGSTYYADSVKGRFSISRDNAKNTVYLQMNSLKPEDTAVYYCARSTYPYRYGYWGQGTQVTVSS | high polyreactivity
34 | QDQLVESGGCLVQAGGSLRLSCAASGSTFPIYAMGWYRQEPGKERELVAPITWNGGRTYYADSVKGRFTISRDNAKNTVYLQMNSLKPEDTAVYYCNALYYHNLEGNYWGQGTQVTVSS | high polyreactivity
35 | QDQLVESGGCLVQAGLSLRLSCAASGSTFGPYAMGWYRQAPGKERELVADISGGSTNYADSVKGRFTISRDNAKNTVYLQLNSLKPEDTAFYYCATDDHVETVRRLYGDWGQGTQVTVSS | low polyreactivity
36 | QDQLVESGGGFVQAGGSLRLSCAASGSIFLINAMGWYRQAPGKERELVAAISWRGGTTYYADSVKGRFTISRDNAKNSVYLQLNSLKPEDTAVYYCAAYGGRFRGPTRYDYWVQGTQVTVSS | high polyreactivity
37 | QDQLVESGGGIVQAGGSIRLSCAASGNTFGWYAMGWYRKAPGKERELVASISSSGSTNYADSVKGRFTISRDNAKNTVYLQMNSLKPEDTAVYYSNADLTQYLGPVYEYVYWGQGTQVTVSS | low polyreactivity
38 | QDQLVESGGGIVQAGGSLRLSCAASGFTFFANTMGWSRQAPGKERELVAVISSTVGYTYYADSVKGRFTISRDNAKNTVYLQMNSLKPEDTAVYYCAAKSIYDGFPYYLFDYWGQGSQVTVSS | high polyreactivity
39 | QDQLVESGGGIVQAGGSLRLSCAASGSTIFYYAMGWYRQAPGKERELVAASSQRGGSTRYADSVKGRFTISRDNAKNTVYLQINSLKPEDSAVYYCAAARSPYKYSYWGQGTQVTVSS | high polyreactivity
40 | QDQLVESGGGIVQAGGSLRLSCAASGSTIPSYAMGWYRQAPGKERELVASITYSDGTTRYADSVKGRFTISRDNAKNTVCLQMNRLKPVDTAVYYCNAVYDREGMDYWGQGTQVTVSS | low polyreactivity
41 | QDQLVESGGGLDQAGGSLRLSGAASGGILPRYAMGWYRQAPGKERELVAGITRGGSTYYADSVKGRFSISRDNAKNTVYLQMNSLKPEDTAVYYCAKYGYQTGIFYYWGQGTQVTVSS | high polyreactivity
42 | QDQLVESGGGLFQAGGSLRLSCAASGSIFGHYAMGWYRQAPGKERELVAAISWRGGSTYYADSVKGRFTISRDNAKNTVYIQMNSLKPEDTAVYYCAADRWDKAYDYWGQVTQVTVSS | low polyreactivity
43 | QDQLVESGGGLFQEGGSLRLSCSASGSTFWVNTIRWYRQAPGKATELVADISSGGNTYYAHSVKGRFTISRDNAKNTVYLQMNSLKTEDTAVYYCNADPFTRWVIRDDYGGQGTQVTVSS | low polyreactivity
